Data from patent US20190322765A1 (Hoffmann-La Roche, published 2019).
Values joined by “and” are separate entries in the source; they are usually repeats but may differ in a detail not shown here. Equal values may be shown once.

Experiments:
[1] = molecular target: T1, human IL-2R βγ heterodimer, subunit-Fc knobs-into-holes fusion (human); assay: SPR, receptor on CM5, 25°C, 1:1 fit
T1 construct: The entries may hold a leader peptide; also called Hu IL-2R βγ; human IL2-R β knob γ hole heterodimer

[2] = molecular target: T2, murine IL-2R βγ heterodimer (β knob γ hole Fc fusion) (murine, UniProt P16297 27-240; P34902 23-263); assay: SPR, receptor on CM5, 25°C, 1:1 fit
T2 construct: also called Mu IL-2R βγ; mouse IL-2R βγ heterodimer; not shown: Fc knob/hole part
T2 sequence (looked up) 1: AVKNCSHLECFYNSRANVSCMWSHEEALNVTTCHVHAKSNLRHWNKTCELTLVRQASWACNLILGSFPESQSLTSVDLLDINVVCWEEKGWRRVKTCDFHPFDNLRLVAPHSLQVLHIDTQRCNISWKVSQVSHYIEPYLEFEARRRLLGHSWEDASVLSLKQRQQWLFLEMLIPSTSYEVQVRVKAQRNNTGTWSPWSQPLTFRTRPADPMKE
T2 sequence (looked up) 2: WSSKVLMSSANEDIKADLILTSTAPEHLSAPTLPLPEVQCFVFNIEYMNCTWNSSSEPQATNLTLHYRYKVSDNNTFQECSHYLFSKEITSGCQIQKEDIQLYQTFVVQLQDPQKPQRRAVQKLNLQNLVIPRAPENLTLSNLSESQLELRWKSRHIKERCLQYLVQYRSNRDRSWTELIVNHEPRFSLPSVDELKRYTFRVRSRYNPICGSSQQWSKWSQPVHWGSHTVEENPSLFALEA

[3] = molecular target: T3, cynomolgus IL-2R βγ heterodimer (β knob γ hole Fc fusion) (cynomolgus); assay: SPR, receptor on CM5, 25°C, 1:1 fit
T3 construct: also called Cyno IL-2R βγ

[4] = molecular target: T1, human IL-2R βγ heterodimer, subunit-Fc …; assay: SPR, receptor on CM5, 37°C, 1:1 fit
[5] = molecular target: T2, murine IL-2R βγ heterodimer (β knob γ …); assay: SPR, receptor on CM5, 37°C, 1:1 fit
[6] = molecular target: T3, cynomolgus IL-2R βγ heterodimer (β knob …); assay: SPR, receptor on CM5, 37°C, 1:1 fit
[7] = molecular target: T4, human FAP expressed on stably transfected HEK293 cells (human, UniProt Q12884 1-760); assay: FACS on FAP-expressing HEK cells
T4 construct: whole, on cells

[8] = molecular target: T4, human FAP expressed on stably …; assay: FACS on HEK 293-human FAP cells, median fluorescence against concentration
[9] = molecular target: T5, human DPPIV on transfected HEK 293 cells (human, UniProt P27487 1-766); assay: FACS on HEK 293-human DPPIV cells, with HEK mock-transfected cells, cells only and sec. antibody as controls; concentration not shown
T5 construct: whole, on cells; also called CD26

[10] = molecular target: T6, IL-2R βγ heterodimer on human cells (NK92 cells, NK and T cells of PBMC) (human, UniProt P14784 27-551; P31785 23-369); assay: cell-based or functional assay
T6 sequence (looked up) 1: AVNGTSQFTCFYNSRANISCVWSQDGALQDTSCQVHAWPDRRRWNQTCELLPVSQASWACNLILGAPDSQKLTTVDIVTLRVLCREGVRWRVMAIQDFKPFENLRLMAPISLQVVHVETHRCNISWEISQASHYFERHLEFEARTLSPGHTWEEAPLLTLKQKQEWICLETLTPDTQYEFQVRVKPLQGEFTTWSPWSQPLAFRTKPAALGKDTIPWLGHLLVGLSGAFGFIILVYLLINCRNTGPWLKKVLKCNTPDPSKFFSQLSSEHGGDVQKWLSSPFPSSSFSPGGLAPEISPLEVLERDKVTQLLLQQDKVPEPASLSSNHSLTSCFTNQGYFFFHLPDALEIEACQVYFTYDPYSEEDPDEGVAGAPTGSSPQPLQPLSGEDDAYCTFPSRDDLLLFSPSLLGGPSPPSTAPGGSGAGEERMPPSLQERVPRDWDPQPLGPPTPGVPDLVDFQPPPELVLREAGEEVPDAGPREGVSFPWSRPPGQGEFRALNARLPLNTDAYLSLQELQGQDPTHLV
T6 sequence (looked up) 2: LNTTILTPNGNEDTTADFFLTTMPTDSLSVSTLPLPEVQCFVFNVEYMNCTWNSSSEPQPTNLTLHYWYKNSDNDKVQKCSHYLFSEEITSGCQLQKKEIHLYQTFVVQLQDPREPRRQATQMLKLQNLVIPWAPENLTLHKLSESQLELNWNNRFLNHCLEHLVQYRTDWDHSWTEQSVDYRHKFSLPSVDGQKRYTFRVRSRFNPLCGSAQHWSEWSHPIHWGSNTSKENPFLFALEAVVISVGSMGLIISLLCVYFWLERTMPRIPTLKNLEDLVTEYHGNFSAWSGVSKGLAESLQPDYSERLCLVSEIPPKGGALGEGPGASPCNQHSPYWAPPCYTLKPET

[11] = molecular target: T7, human IL-2R α-subunit, monomeric, with AcTev cleavage site and Avi His tag (human); assay: SPR, receptor on CM5, 25°C
T7 construct: also called Hu IL-2R α; CD25
T7 chain: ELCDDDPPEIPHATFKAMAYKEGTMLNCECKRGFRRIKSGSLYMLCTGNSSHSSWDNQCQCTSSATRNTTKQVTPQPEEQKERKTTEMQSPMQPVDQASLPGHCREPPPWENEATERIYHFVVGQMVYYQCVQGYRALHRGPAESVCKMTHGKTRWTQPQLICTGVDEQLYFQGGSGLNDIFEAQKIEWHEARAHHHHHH

[12] = molecular target: T8, cynomolgus IL-2R α-subunit, recombinant monomeric (cynomolgus, UniProt H6WS54 22-240); assay: SPR, receptor on CM5, 25°C
T8 construct: also called Cyno IL-2R α
T8 sequence: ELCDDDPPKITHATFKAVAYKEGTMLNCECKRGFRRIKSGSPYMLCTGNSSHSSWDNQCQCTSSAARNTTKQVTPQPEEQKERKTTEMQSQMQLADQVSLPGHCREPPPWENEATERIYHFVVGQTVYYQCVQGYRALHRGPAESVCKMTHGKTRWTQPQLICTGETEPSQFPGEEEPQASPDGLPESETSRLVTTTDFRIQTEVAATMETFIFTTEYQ

[13] = molecular target: T9, murine IL-2R α-subunit, recombinant monomeric (murine, UniProt P01590 22-236, limits assumed); assay: SPR, receptor on CM5, 25°C
T9 construct: also called Mu IL-2R α
T9 sequence (looked up): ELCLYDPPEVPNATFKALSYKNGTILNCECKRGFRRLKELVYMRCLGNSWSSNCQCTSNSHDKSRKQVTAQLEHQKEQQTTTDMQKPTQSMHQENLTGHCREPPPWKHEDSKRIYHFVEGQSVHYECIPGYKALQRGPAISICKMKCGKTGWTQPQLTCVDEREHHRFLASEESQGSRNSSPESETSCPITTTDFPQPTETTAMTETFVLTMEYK

[14] = molecular target: T1, human IL-2R βγ heterodimer, subunit-Fc …; assay: SPR, receptor on CM5, 25°C, apparent KD, 1:1 fit
[15] = molecular target: FAP on GM05389 fibroblasts; assay: FACS on GM05389 fibroblasts, surface-bound construct detected with secondary antibody after the times shown (internalization analysis); concentration not shown

Kd [1]: 7.5 nM and 6.9 nM
Kd [2]: 66 nM and 54 nM
Kd [3]: 8.9 nM and 8.4 nM
Kd [4]: 14.3 nM and 14.7 nM
Kd [5]: 142 nM and 106 nM
Kd [6]: 21.3 nM and 21.2 nM
EC50 [7]: 0.7 nM
EC50 (read off the curve) [8]: ~10 nM
binding result [9]: no binding
EC50 of STAT5 phosphorylation, CD8+ T cells [10]: 20.6 nM
EC50 of STAT5 phosphorylation, NK cells [10]: 3.47 nM
EC50 of STAT5 phosphorylation, Treg cells [10]: 19.7 nM
binding result [11]: no binding (tested: 300 nM)
binding result [12]: no binding (tested: 25 nM)
binding result [13]: no binding (tested: 25 nM)
Kd [14]: 11.4 nM
binding result [15]: binds
B1: 28H1 Fab-IL-2 qm-Fab (other)
chain: EVQLLESGGGLVQPGGSLRLSCAASGFTFSSHAMSWVRQAPGKGLEWVSAIWASGEQYYADSVKGRFTISRDNSKNTLYLQMNSLRAEDTAVYYCAKGWLGNFDYWGQGTLVTVSSASTKGPSVFPLAPSSKSTSGGTAALGCLVKDYFPEPVTVSWNSGALTSGVHTFPAVLQSSGLYSLSSVVTVPSSSLGTQTYICNVNHKPSNTKVDKKVEPKSCDSGGGGSGGGGSGGGGAPASSSTKKTQLQLEHLLLDLQMILNGINNYKNPKLTRMLTAKFAMPKKATELKHLQCLEEELKPLEEVLNGAQSKNFHLRPRDLISNINVIVLELKGSETTFMCEYADETATIVEFLNRWITFAQSIISTLTSGGGGSGGGGSGGGGEVQLLESGGGLVQPGGSLRLSCAASGFTFSSHAMSWVRQAPGKGLEWVSAIWASGEQYYADSVKGRFTISRDNSKNTLYLQMNSLRAEDTAVYYCAKGWLGNFDYWGQGTLVTVSSASTKGPSVFPLAPSSKSTSGGTAALGCLVKDYFPEPVTVSWNSGALTSGVHTFPAVLQSSGLYSLSSVVTVPSSSLGTQTYICNVNHKPSNTKVDKKVEPKSCD
light: EIVLTQSPGTLSLSPGERATLSCRASQSVSRSYLAWYQQKPGQAPRLLIIGASTRATGIPDRFSGSGSGTDFTLTISRLEPEDFAVYYCQQGQVIPPTFGQGTKVEIKRTVAAPSVFIFPPSDEQLKSGTASVVCLLNNFYPREAKVQWKVDNALQSGNSQESVTEQDSKDSTYSLSSTLTLSKADYEKHKVYACEVTHQGLSSPVTKSFNRGEC
notes: Fab-IL-2-Fab immunoconjugate against FAP with quadruple mutant IL-2; also called FAP 28H1 qm
